Experimental data published in the supplement of paper PMC9732359.
± gives the uncertainty stated by the source.

Assay: protein stability index of a GFP-peptide fusion (yeast GPS) (PSI 1-4); higher = more stable; sorted into four equal gates, so the index is relative within each strain
In short: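 Peptides tiling yeast proteins in 17-residue segments were fused downstream of GFP, with Cherry expressed from the same plasmid. As a pooled library in yeast, mid-log cultures grown in leucine-free medium were sorted into four equal gates by GFP/Cherry fluorescence ratio. Gate plasmids were PCR-amplified and Illumina-sequenced, and barcodes linked reads to strains. Each peptide received a protein stability index equal to the sum of each gate's read frequency times its gate number.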

Sequence: RYDCSFCGKKTVKRGAA [RPL43A]
- protein stability index (doa10∆): 2.07 ± 0.066
- protein stability index (pdr5∆): 2.13 ± 0.071
- protein stability index (san1∆): 2.21 ± 0.11
- protein stability index (ubr1∆): 2.12 ± 0.053

Sequence: DNKEKDFELEISWCSLS [PRE10]
- protein stability index (doa10∆): 3.54 ± 0.12
- protein stability index (pdr5∆): 3.13 ± 0.14
- protein stability index (san1∆): 2.87 ± 0.13
- protein stability index (ubr1∆): 3.13 ± 0.088

Sequence: RLFIGDQNNKKMVGLRG [SNF2]
- protein stability index (doa10∆): 2.65 ± 0.1
- protein stability index (pdr5∆): 2.87 ± 0.085
- protein stability index (san1∆): 2.36 ± 0.1
- protein stability index (ubr1∆): 2.69 ± 0.082

Sequence: VYVTGGRNLGRIGTIVH [RPS4A]
- protein stability index (doa10∆): 3.02 ± 0.21
- protein stability index (pdr5∆): 2.8 ± 0.18
- protein stability index (san1∆): 3.18 ± 0.084
- protein stability index (ubr1∆): 3.4 ± 0.13

Sequence: VDVQAPTDDKTLKPTFS [YOR098C/NUP1]
- protein stability index (doa10∆): 3.05 ± 0.15
- protein stability index (pdr5∆): 3.23 ± 0.18
- protein stability index (san1∆): 3.16 ± 0.19
- protein stability index (ubr1∆): 3.27 ± 0.076

Sequence: LQELIVNGPNVHPGANY [RPO31]
- protein stability index (doa10∆): 2.83 ± 0.071
- protein stability index (pdr5∆): 2.99 ± 0.092
- protein stability index (san1∆): 2.99 ± 0.072
- protein stability index (ubr1∆): 2.45 ± 0.047

Sequence: RDVYVFDKVEVQVRSVM [DIS3]
- protein stability index (doa10∆): 2.92 ± 0.067
- protein stability index (pdr5∆): 3 ± 0.068
- protein stability index (san1∆): 3.33 ± 0.052
- protein stability index (ubr1∆): 3.24 ± 0.071

Sequence: LLTVEEGQLKPGDGSSY [RPC25]
- protein stability index (doa10∆): 3.43 ± 0.15
- protein stability index (pdr5∆): 3.23 ± 0.24
- protein stability index (san1∆): 2.83 ± 0.18
- protein stability index (ubr1∆): 3.27 ± 0.14

Sequence: IEKNVMESIGSDILTAE [RRP4]
- protein stability index (doa10∆): 2.78 ± 0.092
- protein stability index (pdr5∆): 3.04 ± 0.19
- protein stability index (san1∆): 2.95 ± 0.2

Sequence: RRRAFKRSQKKHKKKHL [RPB4]
- protein stability index (doa10∆): 3.16 ± 0.091
- protein stability index (pdr5∆): 3.1 ± 0.078
- protein stability index (san1∆): 3.13 ± 0.057
- protein stability index (ubr1∆): 3.46 ± 0.077

Sequence: DGIFSSKTDNIEDPNLS [YMR153W/NUP53]
- protein stability index (doa10∆): 2.59 ± 0.086
- protein stability index (pdr5∆): 2.2 ± 0.092
- protein stability index (san1∆): 2.69 ± 0.096
- protein stability index (ubr1∆): 2.55 ± 0.095

Sequence: KRLIAHDWLNALDGDLI [YCG1]
- protein stability index (doa10∆): 2.18 ± 0.17
- protein stability index (pdr5∆): 2.9 ± 0.16
- protein stability index (san1∆): 2.6 ± 0.17
- protein stability index (ubr1∆): 3.23 ± 0.081

Sequence: ALASIQTFNFDSFENYF [RPN12]
- protein stability index (doa10∆): 2.65 ± 0.048
- protein stability index (pdr5∆): 2.77 ± 0.069
- protein stability index (san1∆): 2.51 ± 0.096
- protein stability index (ubr1∆): 2.82 ± 0.054

Sequence: ENDIIKLSDSKTSNIES [BRR2]
- protein stability index (pdr5∆): 2.48 ± 0.18
- protein stability index (san1∆): 2.77 ± 0.19
- protein stability index (ubr1∆): 3.09 ± 0.15

Sequence: SYNWGAKAKRRHTTGTG [RPL37A]
- protein stability index (doa10∆): 3.37 ± 0.097
- protein stability index (pdr5∆): 3.15 ± 0.055
- protein stability index (san1∆): 3.13 ± 0.078
- protein stability index (ubr1∆): 3.34 ± 0.043

Sequence: VKAFLSIFEDAIKELNY [NUT1]
- protein stability index (doa10∆): 2.04 ± 0.091
- protein stability index (pdr5∆): 1.73 ± 0.087
- protein stability index (san1∆): 2.55 ± 0.19
- protein stability index (ubr1∆): 2.62 ± 0.19

Sequence: SWNESEDTLSGYDPIVS [PRP28]
- protein stability index (doa10∆): 3.04 ± 0.12
- protein stability index (pdr5∆): 3.14 ± 0.12
- protein stability index (san1∆): 3.19 ± 0.076
- protein stability index (ubr1∆): 3.44 ± 0.06

Sequence: WCAGAGTAADTEAVTQL [PUP1]
- protein stability index (doa10∆): 3.16 ± 0.24
- protein stability index (pdr5∆): 2.94 ± 0.23
- protein stability index (san1∆): 2.78 ± 0.21

Sequence: ETTIDDLPISSTDNEAI [SMC1]
- protein stability index (doa10∆): 2.67 ± 0.069
- protein stability index (pdr5∆): 2.7 ± 0.087
- protein stability index (san1∆): 2.66 ± 0.053
- protein stability index (ubr1∆): 2.97 ± 0.058

Sequence: IYRTTRQDGSYTYHSTN [ARP9]
- protein stability index (doa10∆): 2.61 ± 0.08
- protein stability index (pdr5∆): 2.74 ± 0.083
- protein stability index (san1∆): 2.27 ± 0.093
- protein stability index (ubr1∆): 2.53 ± 0.058

Sequence: AIANTLLYLRLKNIYVS [PRP8]
- protein stability index (doa10∆): 1.38 ± 0.048
- protein stability index (pdr5∆): 1.53 ± 0.05
- protein stability index (san1∆): 1.38 ± 0.084
- protein stability index (ubr1∆): 1.18 ± 0.045

Sequence: AFDLDGTGKSQSGSNSG [ROX3]
- protein stability index (doa10∆): 3.44 ± 0.25
- protein stability index (pdr5∆): 2.71 ± 0.2
- protein stability index (ubr1∆): 3.42 ± 0.23

Sequence: STPGGGSVFNMNGNTNA [YOR098C/NUP1]
- protein stability index (doa10∆): 2.87 ± 0.098
- protein stability index (pdr5∆): 3.6 ± 0.2
- protein stability index (ubr1∆): 3.15 ± 0.15

Sequence: SSEFVSQDTKVICSVTG [RRP46]
- protein stability index (doa10∆): 2.67 ± 0.054
- protein stability index (pdr5∆): 2.37 ± 0.056
- protein stability index (san1∆): 2.43 ± 0.076
- protein stability index (ubr1∆): 2.58 ± 0.059

Sequence: LQEAIDFAQKEINGDDD [PRE10]
- protein stability index (doa10∆): 2.96 ± 0.087
- protein stability index (pdr5∆): 3 ± 0.079
- protein stability index (san1∆): 3.23 ± 0.067
- protein stability index (ubr1∆): 2.96 ± 0.076
